Data set [1] concerns the molecule itself. Put plainly: native MS; purified Atg18 exchanged into 200 mM ammonium acetate; Q-ToF Ultima modified for high mass complexes.
Data set [2] deals with the molecule itself. Put plainly: FRET or BRET; stopped-flow, 0.5 µM acceptor-labelled Atg18 C113 bound to LUVs with PtdIns(3,5)P2 (1 mM total lipid) mixed with 0.5 µM donor-labelled Atg18 C113 free in solution; 25 °C, HP150 buffer with 0.1 mM TCEP; dye pairs Alexa Fluor 488/546 and Oregon Green/Texas Red. Background: BRET reads energy transfer from a luciferase to a nearby fluorophore.

Substitutions are numbered along the chain they refer to.

B1: Pichia angusta Atg18 (wild type) (natural protein, Pichia angusta (Hansenula polymorpha))
chain: MASPNPLAFEAATAAHEVAASYVTEHKPRKNDNINFANFNQDFSCVSVGYSNGYKIYNCEPFGQCYSKSDGSIGIVEMLFSSSLLAIVGMGEQHSLSPRRLKIINTKRQTTICELTFPGAILAVKLNRERLVVLLEETIYIYDINNMRLLHTIETPSNPNGLIALSPSSENNYLAYPSPQKLAPNPQTEVTLHSNPQTVRNGDVIIFDAKTLQPTSVIEAHRTSLAAIALSKDGLLLATASDKGTIIRVFSVATGIKLYQFRRGTYPTKIYSLAFSPDNRFVIASSATETVHIFRLGEEEAANTIKSANKKARLTKAQVPNPLETSPDIYPHNQHTSSDEDEELNEDEEDLDGDEDEDLEDDAHVPVSLQRGRSSSSTGSFHSSESMTDKLKEPLVDNSRKSVARMLRRTSQSLGRKAAEKMGTYLPPKFSSILEPNRHFASLKVPASKETKTVVGVGSKIWDDLIPSVYLKDDANSITETSEDLVNKKLVHIMVITSEGFFYKFGLDPERGGDCVLLHQQSLFG
notes: Atg18 of Pichia angusta (Hansenula polymorpha), UniProt entry Q5QA94, synthetic gene in pET-28a; also called PaAtg18; source: E. coli, purified (HisTrap, Superdex 200); not shown: His-tag, N-terminal, kept
B1: the stoichiometry N (usually the number of molecules, sites or subunits per partner or assembly) in data set [1] is at most 4.

B2: Atg18 C113 single cysteine mutant, fluorescently labelled (natural protein, Pichia angusta (Hansenula polymorpha))
chain: B1 chain with C45A, C59A, C65A, C515A
modifications: C113 labelled with Alexa Fluor 488 C5 maleimide (donor) or Alexa Fluor 546 C5 maleimide (acceptor); in the repeat with Oregon Green 488 maleimide or Texas Red C2 maleimide
notes: Atg18 of Pichia angusta (Hansenula polymorpha), UniProt entry Q5QA94, synthetic gene in pET-28a; single cysteine mutant that keeps C113; That the other four are alanine in it is read from this; Two differently labelled copies of the same protein were mixed; also called C113 mutant; source: E. coli, purified (HisTrap, Superdex 200), labelled with maleimide dye
Turning to B2, the binding result in data set [2] is recorded as “binds”.
